Legend:
[1] = target: Platynereis dumerilii L-Cryptochrome (L-Cry), full length, N-terminally His6-tagged (1-567) (Platynereis dumerilii); assay: SEC-MALS; purified dark-state L-Cry on a Superose 6 10/300 column, 0.4 ml/min, SEC buffer 25 mM Bis-Tris propane pH 8.0, 150 mM NaCl; molar mass about 130 kDa against 65.6 kDa for the monomer
L-Cry (Pdu-L-Cry) = target: T1, L-Cry (Pdu-L-Cry) (Platynereis dumerilii, UniProt Z9ZPX6J9J5); assay: RP-HPLC of chromophore released from purified protein; UV/Vis spectroscopy; format: binding; details: co-purified from Sf9 cells; dark state oxidized FAD (maxima 450 and 475 nm), photoreduced to anionic radical; pH 8.0, 1 mM TCEP
T1 sequence (Z9ZPX6J9J5 1-565): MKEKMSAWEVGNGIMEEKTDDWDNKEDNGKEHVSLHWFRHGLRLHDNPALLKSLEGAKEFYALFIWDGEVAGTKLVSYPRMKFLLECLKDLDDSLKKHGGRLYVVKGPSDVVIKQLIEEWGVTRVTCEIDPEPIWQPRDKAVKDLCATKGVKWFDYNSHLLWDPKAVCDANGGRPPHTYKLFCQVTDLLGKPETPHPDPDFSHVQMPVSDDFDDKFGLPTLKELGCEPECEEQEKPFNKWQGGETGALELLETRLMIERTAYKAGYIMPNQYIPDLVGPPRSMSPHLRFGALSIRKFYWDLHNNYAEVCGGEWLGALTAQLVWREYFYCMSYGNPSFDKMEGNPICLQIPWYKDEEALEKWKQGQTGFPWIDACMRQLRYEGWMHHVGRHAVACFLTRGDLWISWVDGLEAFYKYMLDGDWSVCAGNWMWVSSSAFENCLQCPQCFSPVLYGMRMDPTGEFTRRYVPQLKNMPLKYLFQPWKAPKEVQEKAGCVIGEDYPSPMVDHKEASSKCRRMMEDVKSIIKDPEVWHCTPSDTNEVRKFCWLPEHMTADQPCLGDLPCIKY

stoichiometry N [1]	Molecule	RP-HPLC of chromophore released from purified protein; UV/Vis spectroscopy (L-Cry (Pdu-L-Cry))
2	Platynereis dumerilii L-Cryptochrome (L-Cry), full length, N-terminally His6-tagged (1-567) (natural protein)	
	Cc1cc2nc3c(=O)[nH]c(=O)nc-3n(C[C@H](O)[C@H](O)[C@H](O)COP(=O)(O)OP(=O)(O)OC[C@H]3O[C@@H](n4cnc5c(N)ncnc54)[C@H](O)[C@@H]3O)c2cc1C [Flavin Adenine Dinucleotide]	purified L-Cry binds Flavin Adenine Dinucleotide (FAD) as its chromophore

Source: publication PMC9445029, “A Cryptochrome adopts distinct moon- and sunlight states and functions as sun- versus moonlight interpreter in monthly oscillator entrainment” (Nature Communications, 2022)
